The target of the assay is ACM2 variant of AC fused to GFP (ACM2-GFP), encoded by plasmid pACM2-Gfp (Bordetella pertussis | not stated) (UniProt P0DKX7). Description: two-hybrid.

This is an account of results in PMC13334617.

Turning to “calmodulin (CaM) with a 6-histidine tag at its N-terminus and a tetra-cysteine tag at its C-terminus, encoded by plasmid pTCam (from UniProt P0DP23 1-149) (natural protein)”, the ß gal (Rel. Units) amounted to 8 Rel. Units.
